From the supplement of paper PMC9112550, “Optimization of the antimicrobial peptide Bac7 by deep mutational scanning” (BMC Biology, 2022)

Test system: Escherichia coli TOP10
Test: shrunken log2 fold change of peptide-encoding DNA abundance (4.5 h post-induction vs induction); higher = less antimicrobial activity (less host growth inhibition)
Conditions: time post-induction: 4.5 h; library: site-saturation at positions 5, 18, 19, 20
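Note: peptides expressed intracellularly from a pBAD plasmid library in pooled LB shake-flask culture, induced with 0.3% L-arabinose, DNA abundance read by NGS, three biological replicates, DESeq2 with apeglm shrinkage.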

Sequence	shrunken log2 fold change
RRIRDRPPRLPRPRPRPMQWPRP	0.0918
RRIRDRPPRLPRPRPRPMRDPRP	0.131
RRIRDRPPRLPRPRPRPMRGPRP	0.937
RRIRDRPPRLPRPRPRPMRHPRP	0.089
RRIRDRPPRLPRPRPRPMRKPRP	0.763
RRIRDRPPRLPRPRPRPMRVPRP	0.304
RRIRDRPPRLPRPRPRPMSQPRP	-0.236
RRIRDRPPRLPRPRPRPMTQPRP	0.0403
RRIRDRPPRLPRPRPRPMVAPRP	0.00167
RRIRDRPPRLPRPRPRPMVRPRP	0.152
RRIRDRPPRLPRPRPRPMWFPRP	0.0563
RRIRDRPPRLPRPRPRPMYYPRP	-0.535
RRIRDRPPRLPRPRPRPNAKPRP	0.128
RRIRDRPPRLPRPRPRPNCFPRP	0.156
RRIRDRPPRLPRPRPRPNCIPRP	-0.00269
RRIRDRPPRLPRPRPRPNCLPRP	0.0835
RRIRDRPPRLPRPRPRPNCVPRP	0.0238
RRIRDRPPRLPRPRPRPNDQPRP	-0.154
RRIRDRPPRLPRPRPRPNEFPRP	-0.0102
RRIRDRPPRLPRPRPRPNEIPRP	-0.0208
RRIRDRPPRLPRPRPRPNGLPRP	-0.0178
RRIRDRPPRLPRPRPRPNGMPRP	-0.0609
RRIRDRPPRLPRPRPRPNIKPRP	-0.384
RRIRDRPPRLPRPRPRPNLFPRP	0.0627
RRIRDRPPRLPRPRPRPNMDPRP	-0.491

Sequence	shrunken log2 fold change
RRIRDRPPRLPRPRPRPNMKPRP	0.818
RRIRDRPPRLPRPRPRPNMQPRP	-0.339
RRIRDRPPRLPRPRPRPNMYPRP	-0.229
RRIRDRPPRLPRPRPRPNNTPRP	-0.747
RRIRDRPPRLPRPRPRPNRKPRP	-0.355
RRIRDRPPRLPRPRPRPNRMPRP	-0.196
RRIRDRPPRLPRPRPRPNSCPRP	0.0563
RRIRDRPPRLPRPRPRPNTVPRP	-0.364
RRIRDRPPRLPRPRPRPNTYPRP	-0.127
RRIRDRPPRLPRPRPRPNVEPRP	0.119
RRIRDRPPRLPRPRPRPNWGPRP	0.061
RRIRDRPPRLPRPRPRPNWVPRP	0.0019
RRIRDRPPRLPRPRPRPNYAPRP	-0.457
RRIRDRPPRLPRPRPRPPAAPRP	1.13
RRIRDRPPRLPRPRPRPPAEPRP	0.525
RRIRDRPPRLPRPRPRPPATPRP	0.75
RRIRDRPPRLPRPRPRPPCAPRP	0.371
RRIRDRPPRLPRPRPRPPCYPRP	-0.0706
RRIRDRPPRLPRPRPRPPECPRP	0.0841
RRIRDRPPRLPRPRPRPPFLPRP	0.0487
RRIRDRPPRLPRPRPRPPGGPRP	1.07
RRIRDRPPRLPRPRPRPPGQPRP	0.0311
RRIRDRPPRLPRPRPRPPGRPRP	0.104
RRIRDRPPRLPRPRPRPPHEPRP	0.00485
RRIRDRPPRLPRPRPRPPHKPRP	0.0115

Sequence	shrunken log2 fold change
RRIRDRPPRLPRPRPRPPKLPRP	0.0369
RRIRDRPPRLPRPRPRPPKMPRP	0.166
RRIRDRPPRLPRPRPRPPLDPRP	0.652
RRIRDRPPRLPRPRPRPPLEPRP	0.699
RRIRDRPPRLPRPRPRPPLQPRP	0.414
RRIRDRPPRLPRPRPRPPMYPRP	-0.405
RRIRDRPPRLPRPRPRPPNHPRP	-0.205
RRIRDRPPRLPRPRPRPPPPPRP	0.899
RRIRDRPPRLPRPRPRPPPQPRP	0.775
RRIRDRPPRLPRPRPRPPPRPRP	1.1
RRIRDRPPRLPRPRPRPPQEPRP	0.559
RRIRDRPPRLPRPRPRPPQIPRP	-0.179
RRIRDRPPRLPRPRPRPPQQPRP	-0.089
RRIRDRPPRLPRPRPRPPREPRP	0.837
RRIRDRPPRLPRPRPRPPRRPRP	0.635
RRIRDRPPRLPRPRPRPPTPPRP	0.564
RRIRDRPPRLPRPRPRPPTYPRP	-0.383
RRIRDRPPRLPRPRPRPPWVPRP	-0.0472
RRIRDRPPRLPRPRPRPPYTPRP	-0.0539
RRIRDRPPRLPRPRPRPQAEPRP	-0.129
RRIRDRPPRLPRPRPRPQAPPRP	-0.0631
RRIRDRPPRLPRPRPRPQCDPRP	-0.0921
RRIRDRPPRLPRPRPRPQCLPRP	0.0413
RRIRDRPPRLPRPRPRPQCMPRP	-0.0894
RRIRDRPPRLPRPRPRPQDSPRP	0.00388
